Results from IntAct's records for PubMed 34948388.

B1: Multifunctional methyltransferase subunit TRM112-like protein (Homo sapiens), Q9UI30 (parent)
chain: MKLLTHNLLSSHVRGVGSRGFPLRLQATEVRICPVEFNPNFVARMIPKVEWSAFLEAADNLRLIQVPKGPVEGYEENEEFLRTMHHLLLEVEVIEGTLQCPESGRMFPISRGIPNMLLSEEETES
partner: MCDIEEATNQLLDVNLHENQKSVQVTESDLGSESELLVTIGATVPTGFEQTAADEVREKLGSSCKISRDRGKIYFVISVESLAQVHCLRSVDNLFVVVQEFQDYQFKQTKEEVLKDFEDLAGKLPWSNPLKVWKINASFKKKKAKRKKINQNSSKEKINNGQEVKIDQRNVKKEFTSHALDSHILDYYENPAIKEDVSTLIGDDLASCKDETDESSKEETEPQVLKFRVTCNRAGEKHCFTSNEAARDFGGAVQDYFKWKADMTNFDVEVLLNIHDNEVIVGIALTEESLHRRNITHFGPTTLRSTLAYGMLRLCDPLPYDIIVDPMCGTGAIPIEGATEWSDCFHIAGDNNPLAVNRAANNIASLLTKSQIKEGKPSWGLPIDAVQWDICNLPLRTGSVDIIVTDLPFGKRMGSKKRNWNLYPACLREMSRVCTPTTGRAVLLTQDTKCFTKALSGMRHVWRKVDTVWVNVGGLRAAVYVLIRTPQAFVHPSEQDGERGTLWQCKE
B2: Multifunctional methyltransferase subunit TRM112-like protein (Homo sapiens), Q9UI30 (parent)
chain: B1 chain
partner: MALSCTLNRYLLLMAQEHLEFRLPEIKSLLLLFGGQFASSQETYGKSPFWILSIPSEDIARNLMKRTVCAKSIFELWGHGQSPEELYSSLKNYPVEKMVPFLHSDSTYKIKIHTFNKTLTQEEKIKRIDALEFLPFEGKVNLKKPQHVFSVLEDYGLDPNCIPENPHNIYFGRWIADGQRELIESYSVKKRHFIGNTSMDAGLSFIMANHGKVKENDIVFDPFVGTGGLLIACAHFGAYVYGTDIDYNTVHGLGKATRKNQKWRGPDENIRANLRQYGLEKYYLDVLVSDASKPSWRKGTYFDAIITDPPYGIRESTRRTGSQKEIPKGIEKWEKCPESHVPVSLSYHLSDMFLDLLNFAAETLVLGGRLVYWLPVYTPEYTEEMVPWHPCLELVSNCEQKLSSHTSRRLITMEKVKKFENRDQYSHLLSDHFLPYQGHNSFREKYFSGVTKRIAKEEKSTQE

Variants of: B1
Settings: with thum3_human THUMPD3, Q9BV44

Variant | effect of a mutation on the interaction
MKLLTHNLLFSHVRGVGSRGFPLRLQATEVRICPVEFNPNFVARMIPKVEWSAFLEAADNLRLIQVPKGPVEGYEENEEFLRTMHHLLLEVEVIEGTLQCPESGRMFPISRGIPNMLLSEEETES [S10F] | with no effect
MKLLTHNLLSSHVRGVGSRGFPLRLQATEVRICPVEFNPNFVARMIPKVAWSAFLEAADNLRLIQVPKGPVEGYEENEEFLRTMHHLLLEVEVIEGTLQCPESGRMFPISRGIPNMLLSEEETES [E50A] | with no effect
MKLLTHNLLSSHVRGVGSRGFPLRLQATEVRICPVEFNPNFVARMIPAVEWSAFLEAADNLRLIQVPKGPVEGYEENEEFLRTMHHLLLEVAVIEGTLQCPESGRMFPISRGIPNMLLSEEETES [K48A;E92A] | disrupting interaction strength
MKLLTHNWLSSHVRGVGSRGFPLRLQATEVRICPVEFNPNFVARMIPKVEWSAFLEAADNLRLIQVPKGPVEGYEENEEFLRTMHHLLLEVEVIEGTLQCPESGRMFPISRGIPNMLLSEEETES [L8W] | disrupting interaction strength
MKLLAHNLLSSHVRGVGSRGFPLRLQATEVRICPVEFNPNFVARMIPKVEWSAFLEAADNLRLIQVPKGPVEGYEENEEFLRTMHHLLLEVEVIEGTLQCPESGRMFPISRGIPNMLLSEEETES [T5A] | disrupting interaction strength
MKLLTHNLLSSHVRGVGSRGFPLRLQATEVRICPVEFNPNFVARAIPKVEWSAFLEAADNLRLIQVPKGPVEGYEENEEFLRTMHHLLLEVEVIEGTLQCPESGRMFPISRGIPNMLLSEEETES [M45A] | disrupting interaction strength
MKLLTHNLLSSHVRGVGSRGFPLRLQATEVRICPVEFNPNFVARMIPKVEWSAFLEAADNLRLIQVPKGPVEGYEENEEFLRTMHHLLLEVAVIEGTLQCPESGRMFPISRGIPNMLLSEEETES [E92A] | disrupting interaction strength
MKLLTHNLLSSHVRGVGSRGFPLRLQATEVRICPVEFNPNFVARMIPAVEWSAFLEAADNLRLIQVPKGPVEGYEENEEFLRTMHHLLLEVEVIEGTLQCPESGRMFPISRGIPNMLLSEEETES [K48A] | disrupting interaction strength
MKLLTHNLLSSHVRGVGSRGFPLRLQATEVRICPVEFNPNFVARMIPKVEWSAFLEAADNLRLIQVPKGPVEGYEENEEFLRTMHHLLLEVEVIEGTLQCPESGRMAPISRGIPNMLLSEEETES [F107A] | disrupting interaction strength
MKLLTHNLLSSHVRGVGSRGFPLRLQATEVRICPVEFNPNFVARMIPKVEWSAFLEAADNLRLIQVPKGPVEGYEENEEFLRTMHHLLLEVEVIEGTLQCPESGRMFPISRGAPNMLLSEEETES [I113A] | disrupting interaction strength

Variants of: B2
Settings: with trm11_human TRMT11, Q7Z4G4

Variant | effect of a mutation on the interaction
MKLLTHNLLSSHVRGVGSRGFPLRLQATEVRICPVEFNPNFVARAIPKVEWSAFLEAADNLRLIQVPKGPVEGYEENEEFLRTMHHLLLEVEVIEGTLQCPESGRMFPISRGIPNMLLSEEETES [M45A] | with no effect
MKLLTHNLLSSHVRGVGSRGFPLRLQATEVRICPVEFNPNFVARMIPKVEWSAFLEAADNLRLIQVPKGPVEGYEENEEFLRTMHHLLLEVEVIEGTLQCPESGRMFPISRGAPNMLLSEEETES [I113A] | with no effect
MKLLTHNLLSSHVRGVGSRGFPLRLQATEVRICPVEFNPNFVARMIPAVEWSAFLEAADNLRLIQVPKGPVEGYEENEEFLRTMHHLLLEVAVIEGTLQCPESGRMFPISRGIPNMLLSEEETES [K48A;E92A] | disrupting interaction strength
MKLLTHNLLSSHVRGVGSRGFPLRLQATEVRICPVEFNPNFVARMIPKVEWSAFLEAADNLRLIQVPKGPVEGYEENEEFLRTMHHLLLEVAVIEGTLQCPESGRMFPISRGIPNMLLSEEETES [E92A] | decreasing interaction strength
MKLLTHNLLSSHVRGVGSRGFPLRLQATEVRICPVEFNPNFVARMIPAVEWSAFLEAADNLRLIQVPKGPVEGYEENEEFLRTMHHLLLEVEVIEGTLQCPESGRMFPISRGIPNMLLSEEETES [K48A] | with no effect
MKLLTHNLLFSHVRGVGSRGFPLRLQATEVRICPVEFNPNFVARMIPKVEWSAFLEAADNLRLIQVPKGPVEGYEENEEFLRTMHHLLLEVEVIEGTLQCPESGRMFPISRGIPNMLLSEEETES [S10F] | with no effect
MKLLTHNLLSSHVRGVGSRGFPLRLQATEVRICPVEFNPNFVARMIPKVEWSAFLEAADNLRLIQVPKGPVEGYEENEEFLRTMHHLLLEVEVIEGTLQCPESGRMAPISRGIPNMLLSEEETES [F107A] | decreasing interaction strength
MKLLTHNLLSSHVRGVGSRGFPLRLQATEVRICPVEFNPNFVARMIPKVAWSAFLEAADNLRLIQVPKGPVEGYEENEEFLRTMHHLLLEVEVIEGTLQCPESGRMFPISRGIPNMLLSEEETES [E50A] | with no effect
MKLLTHNWLSSHVRGVGSRGFPLRLQATEVRICPVEFNPNFVARMIPKVEWSAFLEAADNLRLIQVPKGPVEGYEENEEFLRTMHHLLLEVEVIEGTLQCPESGRMFPISRGIPNMLLSEEETES [L8W] | with no effect
